Results reported in US20200055920A1 (published 2020).

Columns and labels:
Assay in all cases: Biacore SPR; receptor-Fc captured by anti-Fc antibody, ligand injected
[1] = target: T1, BMP5 (UniProt P22003 317-454, limits assumed)
T1 sequence (looked up): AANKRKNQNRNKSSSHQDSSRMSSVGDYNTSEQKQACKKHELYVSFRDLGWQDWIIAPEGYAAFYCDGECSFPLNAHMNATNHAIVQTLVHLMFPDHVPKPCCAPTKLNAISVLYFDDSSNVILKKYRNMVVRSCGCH
Experimental: (§1) Ligands were injected and allowed to flow over the captured receptor protein.

[2] = target: T2, Activin AC (UniProt P08476 311-426; P55103 237-352)
T2 sequence (looked up) 1: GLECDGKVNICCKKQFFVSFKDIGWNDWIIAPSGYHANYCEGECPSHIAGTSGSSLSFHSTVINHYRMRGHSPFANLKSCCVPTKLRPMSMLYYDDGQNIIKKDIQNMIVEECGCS
T2 sequence (looked up) 2: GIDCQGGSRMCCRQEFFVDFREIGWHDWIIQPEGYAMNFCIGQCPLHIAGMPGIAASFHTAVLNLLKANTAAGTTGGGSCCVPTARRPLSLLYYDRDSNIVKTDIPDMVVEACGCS
Experimental: as §1

[3] = target: T3, BMP4 (UniProt P12644 293-408)
T3 sequence (looked up): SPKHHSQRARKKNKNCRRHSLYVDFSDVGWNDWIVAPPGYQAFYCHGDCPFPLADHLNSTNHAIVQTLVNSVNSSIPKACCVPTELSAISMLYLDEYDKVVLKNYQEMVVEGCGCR
Experimental: as §1

[4] = target: T4, GDF5 (UniProt P43026 382-501, limits assumed)
T4 construct: also called BMP14
T4 sequence (looked up): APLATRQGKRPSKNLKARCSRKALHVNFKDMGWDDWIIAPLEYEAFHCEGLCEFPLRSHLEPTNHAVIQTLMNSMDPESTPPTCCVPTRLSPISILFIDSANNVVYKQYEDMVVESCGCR
Experimental: as §1

[5] = target: BMP2 (UniProt P12643 283-396)
Experimental: as §1

[6] = target: T5, BMP10 (UniProt O95393 317-424)
T5 sequence (looked up): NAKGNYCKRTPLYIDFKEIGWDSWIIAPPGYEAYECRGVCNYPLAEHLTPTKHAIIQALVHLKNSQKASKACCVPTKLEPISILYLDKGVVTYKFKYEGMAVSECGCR
Experimental: as §1

[7] = target: T6, BMP6 (UniProt P22004 382-513, limits assumed)
T6 sequence (looked up): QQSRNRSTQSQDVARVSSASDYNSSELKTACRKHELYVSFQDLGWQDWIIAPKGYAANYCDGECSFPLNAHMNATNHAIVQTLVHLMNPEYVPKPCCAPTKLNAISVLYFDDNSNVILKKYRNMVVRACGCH
Experimental: as §1

[8] = target: T7, GDF7 (UniProt Q7Z4P5 322-450, limits assumed)
T7 construct: also called BMP12
T7 sequence (looked up): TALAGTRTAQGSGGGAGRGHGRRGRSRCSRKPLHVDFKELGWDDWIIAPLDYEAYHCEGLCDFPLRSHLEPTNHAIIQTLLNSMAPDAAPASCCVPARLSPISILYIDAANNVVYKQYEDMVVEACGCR
Experimental: as §1

[9] = target: T8, Activin B (UniProt P09529 293-407)
T8 construct: also called βBβB
T8 sequence (looked up): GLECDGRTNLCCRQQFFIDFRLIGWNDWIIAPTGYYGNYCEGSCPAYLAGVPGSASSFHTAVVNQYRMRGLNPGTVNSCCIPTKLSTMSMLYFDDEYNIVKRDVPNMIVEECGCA
Experimental: as §1

[10] = target: T9, GDF11 (UniProt O95390 299-407)
T9 construct: also called BMP11
T9 sequence (looked up): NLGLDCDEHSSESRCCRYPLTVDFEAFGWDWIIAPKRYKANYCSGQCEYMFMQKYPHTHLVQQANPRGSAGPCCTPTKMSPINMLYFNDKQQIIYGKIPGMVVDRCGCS
Experimental: as §1

[11] = target: T10, GDF8 (UniProt O14793 267-375)
T10 construct: also called myostatin; growth and differentiation factor-8
T10 sequence (looked up): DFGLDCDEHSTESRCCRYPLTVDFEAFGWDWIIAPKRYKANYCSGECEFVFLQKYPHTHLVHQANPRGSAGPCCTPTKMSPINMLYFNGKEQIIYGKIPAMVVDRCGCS
Experimental: as §1

[12] = target: T11, Activin AB (UniProt P08476 311-426; P09529 293-407)
T11 construct: also called βAβB
T11 sequence (looked up) 1: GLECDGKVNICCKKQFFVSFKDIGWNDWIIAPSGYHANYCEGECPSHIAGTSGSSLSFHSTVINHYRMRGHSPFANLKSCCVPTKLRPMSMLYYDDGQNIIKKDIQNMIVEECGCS
T11 sequence (looked up) 2: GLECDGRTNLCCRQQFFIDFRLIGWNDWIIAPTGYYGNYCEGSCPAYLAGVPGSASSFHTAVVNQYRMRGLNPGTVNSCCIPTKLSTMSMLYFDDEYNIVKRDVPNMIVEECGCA
Experimental: as §1

[13] = target: T12, Activin A (UniProt P08476 311-426)
T12 construct: also called βAβA
T12 sequence (looked up): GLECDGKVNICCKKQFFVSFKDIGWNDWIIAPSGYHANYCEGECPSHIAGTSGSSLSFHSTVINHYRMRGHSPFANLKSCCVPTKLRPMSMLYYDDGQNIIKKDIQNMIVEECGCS
Experimental: as §1

[14] = target: T13, GDF6 (UniProt Q6KF10 336-455, limits assumed)
T13 construct: also called BMP13
T13 sequence (looked up): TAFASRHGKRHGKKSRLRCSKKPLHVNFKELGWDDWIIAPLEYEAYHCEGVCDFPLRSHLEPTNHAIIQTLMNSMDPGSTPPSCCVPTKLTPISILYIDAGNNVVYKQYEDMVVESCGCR
Experimental: as §1

[15] = target: T14, BMP7 (UniProt P18075 293-431)
T14 construct: also called osteogenic protein-1; OP-1
T14 sequence (looked up): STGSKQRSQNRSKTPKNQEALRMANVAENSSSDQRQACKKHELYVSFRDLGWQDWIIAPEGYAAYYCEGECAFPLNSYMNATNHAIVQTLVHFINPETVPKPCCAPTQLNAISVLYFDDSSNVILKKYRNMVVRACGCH
Experimental: as §1

BMP2, sequence (P12643 283-396 limits assumed): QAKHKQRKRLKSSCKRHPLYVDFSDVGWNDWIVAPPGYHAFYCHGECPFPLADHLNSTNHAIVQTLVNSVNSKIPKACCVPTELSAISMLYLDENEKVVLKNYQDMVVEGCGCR

Kd [1]: 45 nM | koff [1]: 0.0053 s⁻¹ | kon [1]: 120000 M⁻¹ s⁻¹ | binding result [2]: no binding | Kd [3]: 0.093 nM | koff [3]: 4.6e-05 s⁻¹ | kon [3]: 490000 M⁻¹ s⁻¹ | binding result [4]: no binding | Kd [5]: 0.31 nM | koff [5]: 0.00025 s⁻¹ | kon [5]: 790000 M⁻¹ s⁻¹ | binding result [6]: no binding | binding result [7]: no binding | Kd [8]: 22 nM | koff [8]: 0.01 s⁻¹ | kon [8]: 460000 M⁻¹ s⁻¹ | binding result [9]: no binding | binding result [10]: no binding | binding result [11]: no binding | binding result [12]: no binding | binding result [13]: no binding | binding result [14]: no binding | binding result [15]: no binding
B1: single-arm ALK3-Fc heterodimeric complex (Fc fusion)
chain 1: GAQNLDSMLHGTGMKSDSDQKKSENGVTLAPEDTLPFLKCYCSGHCPDDAINNTCITNGHCFAIIEEDDQGETTLASGCMKYEGSDFQCKDSPKAQLRRTIECCRTNLCNQYLQPTLPPVVIGPFFDGSIRTGGGTHTCPPCPAPELLGGPSVFLFPPKPKDTLMISRTPEVTCVVVDVSHEDPEVKFNWYVDGVEVHNAKTKPREEQYNSTYRVVSVLTVLHQDWLNGKEYKCKVSNKALPAPIEKTISKAKGQPREPQVYTLPPSREEMTKNQVSLTCLVKGFYPSDIAVEWESNGQPENNYDTTPPVLDSDGSFFLYSDLTVDKSRWQQGNVFSCSVMHEALHNHYTQKSLSLSPG
chain 2: SNTKVDKRVTGGGTHTCPPCPAPELLGGPSVFLFPPKPKDTLMISRTPEVTCVVVDVSHEDPEVKFNWYVDGVEVHNAKTKPREEQYNSTYRVVSVLTVLHQDWLNGKEYKCKVSNKALPAPIEKTISKAKGQPREPQVYTLPPSRKEMTKNQVSLTCLVKGFYPSDIAVEWESNGQPENNYKTTPPVLKSDGSFFLYSKLTVDKSRWQQGNVFSCSVMHEALHNHYTQKSLSLSPGK
notes: also called ALK3-Fc:Fc heterodimer
